This note sets out measurements from IntAct's records for PubMed 16785445.

B1: Interferon-induced, double-stranded RNA-activated protein kinase (Homo sapiens), P19525 (parent)
chain: MAGDLSAGFFMEELNTYRQKQGVVLKYQELPNSGPPHDRRFTFQVIIDGREFPEGEGRSKKEAKNAAAKLAVEILNKEKKAVSPLLLTTTNSSEGLSMGNYIGLINRIAQKKRLTVNYEQCASGVHGPEGFHYKCKMGQKEYSIGTGSTKQEAKQLAAKLAYLQILSEETSVKSDYLSSGSFATTCESQSNSLVTSTLASESSSEGDFSADTSEINSNSDSLNSSSLLMNGLRNNQRKAKRSLAPRFDLPDMKETKYTVDKRFGMDFKEIELIGSGGFGQVFKAKHRIDGKTYVIKRVKYNNEKAEREVKALAKLDHVNIVHYNGCWDGFDYDPETSDDSLESSDYDPENSKNSSRSKTKCLFIQMEFCDKGTLEQWIEKRRGEKLDKVLALELFEQITKGVDYIHSKKLIHRDLKPSNIFLVDTKQVKIGDFGLVTSLKNDGKRTRSKGTLRYMSPEQISSQDYGKEVDLYALGLILAELLHVCDTAFETSKFFTDLRDGIISDIFDKKEKTLLQKLLSKKPEDRPNTSEILRTLTVWKKSPEKNERHTC
partner: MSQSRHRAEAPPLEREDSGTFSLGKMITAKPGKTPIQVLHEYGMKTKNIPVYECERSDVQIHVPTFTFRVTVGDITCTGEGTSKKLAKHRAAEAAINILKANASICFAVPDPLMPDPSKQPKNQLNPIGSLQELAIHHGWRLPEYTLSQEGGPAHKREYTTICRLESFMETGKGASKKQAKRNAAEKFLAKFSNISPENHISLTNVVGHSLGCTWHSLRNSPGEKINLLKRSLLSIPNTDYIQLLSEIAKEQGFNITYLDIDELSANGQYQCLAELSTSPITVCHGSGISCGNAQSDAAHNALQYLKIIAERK

This experiment covers variants of B1. The settings on record: with PRKRA.
As to Y332A, the “effect of a mutation on the interaction” value is recorded as “disrupting interaction strength”.
As for G329A, the entry is “disrupting interaction strength”; as for D333A, “disrupting interaction strength”.
Take D328A: the “effect of a mutation on the interaction” value is “disrupting interaction strength”.
As for D331A, the entry is “disrupting interaction strength”.
